In this assay the target is T1, AXL (R&D Systems cat#154-AL) (UniProt P30530 26-440).
T1 chain: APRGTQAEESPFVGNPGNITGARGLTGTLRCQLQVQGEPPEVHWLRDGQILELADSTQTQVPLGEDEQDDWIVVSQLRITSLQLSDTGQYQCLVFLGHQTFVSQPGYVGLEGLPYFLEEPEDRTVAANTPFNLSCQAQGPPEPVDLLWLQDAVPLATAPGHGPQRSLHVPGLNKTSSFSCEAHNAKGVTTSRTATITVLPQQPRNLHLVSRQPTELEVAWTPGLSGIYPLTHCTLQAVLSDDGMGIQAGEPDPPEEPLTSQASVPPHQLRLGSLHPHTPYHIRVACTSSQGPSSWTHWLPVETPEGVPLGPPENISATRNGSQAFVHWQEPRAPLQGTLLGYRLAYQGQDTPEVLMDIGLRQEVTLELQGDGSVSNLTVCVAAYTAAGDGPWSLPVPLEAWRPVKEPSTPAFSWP
As to the kind of experiment: BLI. Background: BLI is a label-free optical method that tracks binding on a fibre tip over time.

B1: AXL #44 (designed binder)
chain: NVSPPRRARVTDATETTITIRWEGRGVIGFQVDAVPANGQTPIQRTIKPDVRSYTITGLQPGTDYKIYLYTLPNIGTGHFSSSPVVIDAST
A word on the Kd: it is a measure of binding affinity in units of concentration. The low end stands for tighter binding, the high end for weaker binding. Take B1: binding was put at a Kd of 4 nM.

B2: AXL #56 (designed binder)
chain: NVSPPRRARVTDATETTITISWRVSPSTVVGLQVDAVPANGQTPIQRTIKPDVRSYTITGLQPGTDYKIYLYTLNVIGGSAHASSPVVIDAST
B2 showed a Kd of 12 nM.
